Experimental data as given in the supplement of paper PMC10567573.

B1: ZBED2 (parent)
chain: FHLAPARAGHHPNQYATCRLCGRQ

Variants of: B1
Test: protein stability index of a GFP-peptide fusion (GPS, HEK-293T) (PSI 1-6); higher = more stable
Settings: c terminus: a fixed tail appended
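Also: lentivirally expressed fusions sorted by FACS into six bins by GFP to DsRed ratio, PSI derived from sequencing read proportions per bin multiplied by bin number.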

Variant | protein stability index
G9L | 2.55
G9M | 2.27
G9S | 2.51
G9Q | 2.11
G9K | 1.08
G9D | 1.83
G9I | 1.84
G9C | 3.72
G9V | 1.37
G9H | 2.22
G9N | 2.11
G9E | 1.97
G9F | 1.77
G9A | 1.86
G9Y | 1.99
G9W | 2.05
G9P | 1.69
G9T | 2.44
R7M | 2.13
R7Y | 2.09
R7Q | 1.93
R7F | 2.11
R7H | 2.61
R7V | 1.73

Variant | protein stability index
R7E | 2.04
R7T | 2.1
R7A | 1.74
R7D | 2.34
R7I | 1.55
R7G | 2.22
R7L | 1.92
R7N | 2.15
R7K | 2.59
R7P | 1.92
R7S | 1.4
R7C | 3.77
L3C | 1.71
L3N | 2.23
L3G | 1.53
L3T | 2.25
L3S | 1.45
L3A | 1.61
L3K | 2.09
L3D | 2.5
L3P | 3.45
L3M | 1.84
L3E | 2.75
L3I | 1.38

Variant | protein stability index
L3F | 1.93
L3Y | 1.95
L3V | 1.84
L3Q | 1.13
L3H | 1.71
R23C | 1.32
R23A | 1.85
R23E | 1.54
R23D | 2
H11I | 1.33
H11P | 1.4
H11G | 2.01
H11Q | 1.29
H11C | 2.12
H11A | 2.48
H11T | 1.95
H11D | 1.46
H11V | 1.98
H11K | 1.58
H11E | 2.04
H11M | 2.35
H11F | 1.98
H11W | 1.04
H11N | 1.39

Variant | protein stability index
A4S | 2.74
A4F | 2.14
A4E | 2.05
A4W | 2.73
A4L | 1.17
A4H | 1.95
A4C | 2.48
A4D | 1.59
A4Q | 1.91
A4G | 2.19
A4N | 1.48
A4K | 2.32
A4T | 1.84
A4I | 2.53
A4M | 1.39
A6H | 1.92
A6D | 1.89
A6V | 2.15
A6F | 1.68
A6S | 1.61
A6G | 2.54
A6K | 1.4
A6M | 1.67
A6P | 1.93

Variant | protein stability index
A6N | 1.65
A6I | 1.71
A6Q | 1.8
A6E | 2.36
A6R | 1.77
A6W | 1.36
A6C | 3
A6Y | 2.19
A6T | 1.51
A6L | 1.67
H2T | 2.76
H2M | 2.43
H2A | 1.46
H2Q | 2.51
H2I | 2.37
H2S | 1.59
H2W | 1.26
H2G | 1.88
H2K | 1.95
H2F | 1.42
H2D | 2.41
H2L | 1.86
H2E | 2.6
H2C | 1.66

Variant | protein stability index
H2P | 2.78
H2N | 2.65
R19N | 1.52
R19H | 2.05
R19S | 1.92
R19Q | 2.36
R19W | 1.3
R19F | 1.64
R19T | 1.81
R19Y | 1.16
R19G | 2.11
R19A | 1.93
R19K | 3.11
R19E | 1.7
R19V | 2.78
T17D | 2.85
T17C | 1.68
T17N | 1.99
T17P | 1.69
T17G | 2.76
T17E | 1.73
T17I | 1.55
T17Y | 2.15
T17M | 2.42

Variant | protein stability index
T17F | 2.23
T17K | 1.72
T17L | 1.25
T17S | 2.47
Q14K | 2.58
Q14Y | 2.31
Q14E | 2.16
Q14T | 1.47
Q14P | 2.48
Q14C | 2.11
Q14S | 1.48
Q14D | 1.99
P5R | 1.64
P5L | 2
P5H | 1.99
P5E | 2.36
P5G | 1.77
P5T | 2.32
P5I | 2.13
P5A | 2.78
P5Y | 1.52
P5C | 2.04
P5K | 1.83
P5V | 1.96

Variant | protein stability index
P5D | 2.83
P5N | 1.84
P5F | 2.03
P5S | 1.24
P5M | 1.05
P5Q | 2.02
N13K | 1.77
N13T | 1.52
N13M | 1.52
N13Y | 1.55
N13C | 2.97
N13I | 1.42
N13Q | 1.98
N13A | 2.34
N13E | 3.21
N13D | 1.43
Y15H | 2.14
Y15K | 1.53
Y15I | 1.63
Y15C | 1.44
Y15F | 2.54
Y15Q | 2.65
Y15R | 1.15
Y15V | 1.57

Variant | protein stability index
Y15P | 1.07
Y15E | 2.43
A16H | 2.27
A16K | 1.03
A16P | 2.4
A16S | 1.82
A16M | 1.61
A16Y | 2.9
A16L | 1.42
A16T | 2.3
A16N | 2.38
A16G | 1.59
A16F | 2.37
A16E | 1.93
A16C | 2.85
A16I | 2.69
C21Q | 2.08
C21A | 3.59
C21L | 1.95
C21W | 2.1
C21Y | 1.73
C21N | 1.96
C21K | 2.31
C21F | 1.97

Variant | protein stability index
C21M | 1.26
C21I | 1.74
C21P | 2.59
C21H | 2.52
C21S | 3.43
C21T | 2.72
C18P | 2.9
C18N | 3.56
C18L | 1.42
C18Q | 2.87
C18M | 1.93
C18Y | 1.93
C18I | 2.17
C18H | 2.27
C18A | 2.12
C18S | 2.4
C18K | 2.22
C18T | 2.87
C18F | 1.93
C18W | 1.97
C18E | 3.08
C18V | 2.25
P12A | 1.5
P12Y | 1.47

Variant | protein stability index
P12F | 2.1
P12L | 2.12
P12I | 1.95
P12W | 1.52
P12V | 1.49
P12S | 2.23
P12C | 2.67
P12G | 2.48
P12H | 3.06
F1E | 3.31
F1L | 2.13
F1M | 2.1
F1S | 3.33
F1H | 2.46
F1Y | 1.43
F1N | 2.73
F1V | 2.74
F1G | 1.71
F1I | 2.21
F1A | 2.9
F1Q | 2.78
F1C | 2.58
F1W | 1.59
F1D | 3.36

Variant | protein stability index
F1P | 3.07
F1R | 2.77
F1T | 2.45
F1K | 2.53
H10K | 2.63
H10E | 2.32
H10N | 1.55
H10L | 1.7
H10F | 1.9
H10P | 2.05
H10I | 2.3
H10D | 1.27
H10C | 2.01
H10S | 2.24
H10W | 1.78
H10Y | 1.7
H10G | 1.34
H10M | 2.81
H10Q | 2.13
H10V | 1.19
H10R | 1.21
H10T | 3.52
H10A | 1.22
L20C | 1.54

Variant | protein stability index
L20T | 1.82
L20F | 2.4
L20S | 2.22
L20G | 2.82
L20R | 1.92
L20M | 1.94
L20Q | 1.18
L20V | 2.27
L20P | 2.23
L20H | 1.55
L20Y | 3.71
L20D | 1.27
L20N | 1.31
A8V | 1.65
A8Y | 3.15
A8L | 2.47
A8M | 2.75
A8W | 3.08
A8I | 2.73
A8D | 1.36
A8P | 2.56
A8S | 1.76
A8K | 1.69
A8H | 1.75

Variant | protein stability index
A8G | 2.87
A8F | 2.6
A8E | 2.34
A8C | 3.28
A8R | 1.3
A8T | 1.83
A8Q | 2.02
A8N | 2.31
G22L | 2.57
G22I | 2.08
G22Y | 2.12
G22Q | 1.82
G22C | 2.87
G22A | 1.03
G22H | 2.05
G22F | 1.95
G22W | 1.7
G22E | 1.93
G22T | 2.82
G22P | 2.92
G22M | 1.21
G22N | 1.56
